# Measured values published in patent US20130326645.
# Legend:
# Test in all cases: cell_activity
# ZFN 25687 (synthetic) = settings: pair 25686/25687, maize
# ZFN 25688 (synthetic) = settings: pair 25688/25689, maize
# ZFN 25686 (synthetic) = settings: pair 25686/25687, maize
# ZFN 25713 (synthetic) = settings: pair 25712/25713, maize
# ZFN 25689 (synthetic) = settings: pair 25688/25689, maize
# ZFN 29732 (synthetic) = settings: pair 29732/29730, donor pDAS000152 10:1, A-genome (B 6306, D 7911), wheat SEC protoplasts
# ZFN 25716 (synthetic) = settings: pair 25716/25717, maize; text states 380 times control
# ZFN 29730 (synthetic) = settings: pair 29732/29730, donor pDAS000152 10:1, A-genome (B 6306, D 7911), wheat SEC protoplasts
# ZFN 25712 (synthetic) = settings: pair 25712/25713, maize
# ZFN 25717 (synthetic) = settings: pair 25716/25717, maize; text states 380 times control
sequence,measurement,setting,value
GATAGGTGGCAGTGGCAGTGGCACTGGC (double strand) [25687 site],activity (% of IPPK2 ZFN activity),ZFN 25687 (synthetic),32
TATCGGCACAACAAGACTGCGGGTTCGG (double strand) [25688 site],activity (% of IPPK2 ZFN activity),ZFN 25688 (synthetic),108
CACAACAAGACTGCGGGTTCGGTGGCGC (double strand) [25686 site],activity (% of IPPK2 ZFN activity),ZFN 25686 (synthetic),32
GATCAACGGAAGCGGATGGCCCGCTTCT (double strand) [25713 site],activity (% of IPPK2 ZFN activity),ZFN 25713 (synthetic),69
TGGCAGTGGCAGTGGCACTGGCACGGCA (double strand) [25689 site],activity (% of IPPK2 ZFN activity),ZFN 25689 (synthetic),108
GATCCCAAGCGGTGGTGCTTTCAAGGAC (double strand) [29732 site],activity (ppm NHEJ editing),ZFN 29732 (synthetic),6720
TGATCGCATCGGGCATCGGCGACTGATG (double strand) [25716 site],activity (% of IPPK2 ZFN activity as printed),ZFN 25716 (synthetic),380
AGGCAGCACGTGCTCCTGATGCGGGACT (double strand) [29730 site],activity (ppm NHEJ editing),ZFN 29730 (synthetic),6720
ATCGGGCATCGGCGACTGATGAGCCTTG (double strand) [25712 site],activity (% of IPPK2 ZFN activity),ZFN 25712 (synthetic),69
CGGAAGCGGATGGCCCGCTTCTTTAGAA (double strand) [25717 site],activity (% of IPPK2 ZFN activity as printed),ZFN 25717 (synthetic),380
